The target in this test is T1, mouse TNFR2-Fc fusion protein (mouse, UniProt P25119 23-258).
T1 construct: mouse TNF receptor 2 (TNFR2)
T1 sequence (looked up): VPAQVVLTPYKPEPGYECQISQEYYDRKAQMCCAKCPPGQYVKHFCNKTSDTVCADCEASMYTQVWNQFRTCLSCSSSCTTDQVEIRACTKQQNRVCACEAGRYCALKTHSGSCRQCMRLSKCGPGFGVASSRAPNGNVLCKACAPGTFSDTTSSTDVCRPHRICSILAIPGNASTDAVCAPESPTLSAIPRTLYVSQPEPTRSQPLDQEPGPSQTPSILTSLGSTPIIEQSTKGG
Description: ELISA; TNFR1-Fc or TNFR2-Fc coated at 1 µg/ml in PBS, 4 °C overnight; TNF muteins in 2% skim milk powder in PBS, 1 h RT; detected with anti-TNF clone F6C5 and HRP anti-mouse IgG. The following applies: both partners purified.

B1: GCN4-sc-mTNFR2 (ligand)
chain: not shown
As for B1, the EC50 stood at 0.045 nM.

The values above are taken from paper PMC5529482, “Novel strategies to mimic transmembrane tumor necrosis factor-dependent activation of tumor necrosis factor receptor 2” (Scientific Reports, 2017).
